Measurements published in publication PMC7857409 (Science (New York, N.y.), 2020).

Target: SARS-CoV-2 Spike receptor binding domain (RBD) (SARS-CoV-2, ancestral (Wuhan-Hu-1) …, UniProt P0DTC2)
Test: SPR
Conditions: both partners purified

B1: nanobody Nb6 (class I synthetic nanobody) (VHH)
VHH: QVQLVESGGGLVQAGGSLRLSCAASGIIFGRNAMGWYRQAPGKERELVAGITRRGSITYYADSVKGRFTISRDNAKNTVYLQMNSLKPEDTAVYYCAADPASPAPGDYWGQGTQVTVSS
B1 was tested, and the Kd was 41 nM.
